Data from patent US20240317834A1, “COMPOSITIONS AND METHODS FOR NEUROLOGICAL DISEASES” (CODA BIOTHERAPEUTICS, INC., priority 2020, published 2024).

Test system: Lenti-X 293T cells
Experiment: YFP fluorescence quenching anion reporter plate reader assay of engineered receptors stimulated with acetylcholine or a non-native ligand
Assay type: cell-based
Details: for percent quench of YFP fluorescence, 10 uM ach: acetylcholine 10 uM; for percent quench of YFP fluorescence, 100 uM ach: acetylcholine 100 uM; for percent quench of YFP fluorescence, 1 mM ach: acetylcholine 1 mM; for percent quench of YFP fluorescence, 3 mM ach: acetylcholine 3 mM
In short: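 YFP quench was followed for about 1 min 43 s after ligand delivered in iodide-based ECS, pH 7.2. Values are end-of-read fluorescence (last 10 s) divided by the pre-ligand baseline (15 s). Cells were LX293T, transfected with receptor DNA a day before the assay.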

B1: CODA377: engineered chimeric LGIC receptor, S172D in SEQ ID NO: 33 (protein)
chain: MRCSPGGVWLALAASLLHVSLQGEFQRKLYKELVKNYNPLERPVANDSQPLTVYFSLSLLQIMDVDEKNQVLTTNIWLQMSWTDHYLQWNVSEYPGVKTVRFPDGQIWKPDILLYNSADERFDATFHTNVLVNSSGHCQYLPPGIFKSSCPMDLKNFPMDVQTCKLKFGSWDYGGWSLDLQMQEADISGYIPNGEWDLVGIPGKRSERFYECCKEPYPDVTFTVTMRRRMGYYLIQMYIPSLLIVILSWISFWINMDAAPARVGLGITTVLTMTTQSSGSRASLPKVSYVKAIDIWMAVCLLFVFSALLEYAAVNFVSRQHKELLRFRRKRRHHKSPMLNLFQEDEAGEGRFNFSAYGMGPACLQAKDGISVKGANNSNTTNPPPAPSKSPEEMRKLFIQRAKKIDKISRIGFPMAFLIFNMFYWIIYKIVRREDVHNQ
modifications: synthetic sequence of chimeric LGIC
1 nM CNL001, first column
  YFP fluorescence quenching using CNL001: 67.544%
1 nM CNL001, second column
  YFP fluorescence quenching using CNL001: 74.209%
1 nM brd
  YFP fluorescence quenching using TC-5619/Bradanicline: 0.77%
3 nM brd
  YFP fluorescence quenching using TC-5619/Bradanicline: −4.59%
3 nM var, first column
  YFP fluorescence quenching using Varenicline: −3.433
3 nM var, second column
  YFP fluorescence quenching using Varenicline: −5.737
10 nM CNL001, first column
  YFP fluorescence quenching using CNL001: 74.346%
10 nM CNL001, second column
  YFP fluorescence quenching using CNL001: 75.816%
10 nM brd
  YFP fluorescence quenching using TC-5619/Bradanicline: 0.06%
30 nM brd
  YFP fluorescence quenching using TC-5619/Bradanicline: −10.48%
30 nM fac
  YFP fluorescence quenching using Facinicline: 4.93
30 nM var, first column
  YFP fluorescence quenching using Varenicline: −5.319
30 nM var, second column
  YFP fluorescence quenching using Varenicline: −6.175
50 nM CNL001, first column
  YFP fluorescence quenching using CNL001: 77.068%
50 nM CNL001, second column
  YFP fluorescence quenching using CNL001: 76.99%
50 nM abt
  YFP fluorescence quenching using ABT-126: −1.53%
100 nM CNL001, first column
  YFP fluorescence quenching using CNL001: 79.352%
100 nM CNL001, second column
  YFP fluorescence quenching using CNL001: 77.865%
100 nM CNL002
  YFP fluorescence quenching using CNL002: 59.35%
100 nM abt
  YFP fluorescence quenching using ABT-126: 18.18%
100 nM azd0328
  YFP fluorescence quenching using AZD-0328: 65.04%
100 nM brd
  YFP fluorescence quenching using TC-5619/Bradanicline: 0.25%
300 nM abt
  YFP fluorescence quenching using ABT-126: 59.15%
300 nM azd0328
  YFP fluorescence quenching using AZD-0328: 81.73%
300 nM brd
  YFP fluorescence quenching using TC-5619/Bradanicline: −10.61%
300 nM fac
  YFP fluorescence quenching using Facinicline: 84.13
300 nM var, first column
  YFP fluorescence quenching using Varenicline: −4.135
300 nM var, second column
  YFP fluorescence quenching using Varenicline: −8.614
500 nM var, first column
  YFP fluorescence quenching using Varenicline: −6.062
500 nM var, second column
  YFP fluorescence quenching using Varenicline: −6.125
1 uM CNL001, first column
  YFP fluorescence quenching using CNL001: 80.272%
1 uM CNL001, second column
  YFP fluorescence quenching using CNL001: 79.432%
1 uM CNL002
  YFP fluorescence quenching using CNL002: 79.26%
1 uM abt
  YFP fluorescence quenching using ABT-126: 72.28%
1 uM brd
  YFP fluorescence quenching using TC-5619/Bradanicline: 3.82%
1 uM tc6987
  YFP fluorescence quenching using TC-6987: −9.74
1 uM var, first column
  YFP fluorescence quenching using Varenicline: −14.134
1 uM var, second column
  YFP fluorescence quenching using Varenicline: −15.373
3 uM tc6987
  YFP fluorescence quenching using TC-6987: −14.04
5 uM tc6987
  YFP fluorescence quenching using TC-6987: −0.95
10 uM fac
  YFP fluorescence quenching using Facinicline: 66.96
10 uM tc6987
  YFP fluorescence quenching using TC-6987: −7.41
30 uM CNL002
  YFP fluorescence quenching using CNL002: 79.96%
30 uM azd0328
  YFP fluorescence quenching using AZD-0328: 82.3%
30 uM fac
  YFP fluorescence quenching using Facinicline: 85.29
30 uM tc6987
  YFP fluorescence quenching using TC-6987: −16.12
50 uM tc6987
  YFP fluorescence quenching using TC-6987: −12.79
100 uM tc6987
  YFP fluorescence quenching using TC-6987: −11.77
300 uM tc6987
  YFP fluorescence quenching using TC-6987: −19.68
500 uM tc6987
  YFP fluorescence quenching using TC-6987: −17.02
TC-6683 30 nM
  percent quench of YFP fluorescence, 30 nM TC-6683: −20.23%
TC-6683 300 nM
  percent quench of YFP fluorescence, 300 nM TC-6683: −13.94%
TC-6683 3 uM
  percent quench of YFP fluorescence, 3 uM TC-6683: −14.17%
TC-6683 30 uM
  percent quench of YFP fluorescence, 30 uM TC-6683: 1.86%
TC-6683 100 uM
  percent quench of YFP fluorescence, 100 uM TC-6683: 43.61%
  percent quench of YFP fluorescence, 10 uM ach: −3.19%
  percent quench of YFP fluorescence, 100 uM ach: 0.07%
  percent quench of YFP fluorescence, 1 mM ach: 71.7%
  percent quench of YFP fluorescence, 3 mM ach: 76.95%

B2: CODA405: engineered chimeric LGIC receptor, Y210V in SEQ ID NO: 33 (protein)
chain: MRCSPGGVWLALAASLLHVSLQGEFQRKLYKELVKNYNPLERPVANDSQPLTVYFSLSLLQIMDVDEKNQVLTTNIWLQMSWTDHYLQWNVSEYPGVKTVRFPDGQIWKPDILLYNSADERFDATFHTNVLVNSSGHCQYLPPGIFKSSCPMDLKNFPMDVQTCKLKFGSWSYGGWSLDLQMQEADISGYIPNGEWDLVGIPGKRSERFVECCKEPYPDVTFTVTMRRRMGYYLIQMYIPSLLIVILSWISFWINMDAAPARVGLGITTVLTMTTQSSGSRASLPKVSYVKAIDIWMAVCLLFVFSALLEYAAVNFVSRQHKELLRFRRKRRHHKSPMLNLFQEDEAGEGRFNFSAYGMGPACLQAKDGISVKGANNSNTTNPPPAPSKSPEEMRKLFIQRAKKIDKISRIGFPMAFLIFNMFYWIIYKIVRREDVHNQ
modifications: synthetic sequence of chimeric LGIC
1 nM CNL001, first column
  YFP fluorescence quenching using CNL001: −16.246%
1 nM CNL001, second column
  YFP fluorescence quenching using CNL001: −4.217%
3 nM brd
  YFP fluorescence quenching using TC-5619/Bradanicline: 9.92%
3 nM var, first column
  YFP fluorescence quenching using Varenicline: 7.317
3 nM var, second column
  YFP fluorescence quenching using Varenicline: 7.643
10 nM CNL001, first column
  YFP fluorescence quenching using CNL001: −6.142%
10 nM CNL001, second column
  YFP fluorescence quenching using CNL001: −10.003%
30 nM brd
  YFP fluorescence quenching using TC-5619/Bradanicline: 4.37%
30 nM fac
  YFP fluorescence quenching using Facinicline: −26.25
30 nM var, first column
  YFP fluorescence quenching using Varenicline: 9.457
30 nM var, second column
  YFP fluorescence quenching using Varenicline: 9.134
50 nM CNL001, first column
  YFP fluorescence quenching using CNL001: −11.054%
50 nM CNL001, second column
  YFP fluorescence quenching using CNL001: −10.06%
50 nM abt
  YFP fluorescence quenching using ABT-126: −2.9%
100 nM CNL001, first column
  YFP fluorescence quenching using CNL001: −3.832%
100 nM CNL001, second column
  YFP fluorescence quenching using CNL001: −3.784%
100 nM CNL002
  YFP fluorescence quenching using CNL002: −14.3%
100 nM abt
  YFP fluorescence quenching using ABT-126: −2.06%
100 nM azd0328
  YFP fluorescence quenching using AZD-0328: −8.13%
300 nM abt
  YFP fluorescence quenching using ABT-126: −0.19%
300 nM azd0328
  YFP fluorescence quenching using AZD-0328: −3.35%
300 nM brd
  YFP fluorescence quenching using TC-5619/Bradanicline: 59%
300 nM fac
  YFP fluorescence quenching using Facinicline: −23.52
300 nM var, first column
  YFP fluorescence quenching using Varenicline: 15.503
300 nM var, second column
  YFP fluorescence quenching using Varenicline: 11.954
500 nM var, first column
  YFP fluorescence quenching using Varenicline: 13.427
500 nM var, second column
  YFP fluorescence quenching using Varenicline: 10.784
1 uM CNL001, first column
  YFP fluorescence quenching using CNL001: 1.129%
1 uM CNL001, second column
  YFP fluorescence quenching using CNL001: 7.1%
1 uM CNL002
  YFP fluorescence quenching using CNL002: −7.56%
1 uM abt
  YFP fluorescence quenching using ABT-126: −3.64%
1 uM tc6987
  YFP fluorescence quenching using TC-6987: −22.63
1 uM var, first column
  YFP fluorescence quenching using Varenicline: 9.032
1 uM var, second column
  YFP fluorescence quenching using Varenicline: 11.591
10 uM tc6987
  YFP fluorescence quenching using TC-6987: −23.03
30 uM CNL002
  YFP fluorescence quenching using CNL002: −2.02%
30 uM azd0328
  YFP fluorescence quenching using AZD-0328: −2.86%
30 uM fac
  YFP fluorescence quenching using Facinicline: 0.83
500 uM tc6987
  YFP fluorescence quenching using TC-6987: −40.88
  percent quench of YFP fluorescence, 10 uM ach: −6.31%
  percent quench of YFP fluorescence, 100 uM ach: −14.48%
  percent quench of YFP fluorescence, 1 mM ach: −2.82%
  percent quench of YFP fluorescence, 3 mM ach: 1.06%
